Source: patent US6410317, “Recombinase-based methods for producing expression vectors and compositions for use in practicing the same” (Clontech Laboratories, Inc.)

Experiments:
Cre recombinase [1] = molecular target: T1, Cre recombinase (UniProt P06956 P06956:1-343); experiment: in vitro recombination pD3 x pCMVmycloxP, 50 mM Tris-HCl pH 7.5, 30 mM NaCl, 10 mM MgCl2, BSA, 37 C 15 min; chloramphenicol selection in E. coli; conditions: chain copies: 4 per synapse (inferred); AatII and EcoRI overhangs before cloning; assayed within plasmid
T1 sequence (P06956 whole entry, one chain of several): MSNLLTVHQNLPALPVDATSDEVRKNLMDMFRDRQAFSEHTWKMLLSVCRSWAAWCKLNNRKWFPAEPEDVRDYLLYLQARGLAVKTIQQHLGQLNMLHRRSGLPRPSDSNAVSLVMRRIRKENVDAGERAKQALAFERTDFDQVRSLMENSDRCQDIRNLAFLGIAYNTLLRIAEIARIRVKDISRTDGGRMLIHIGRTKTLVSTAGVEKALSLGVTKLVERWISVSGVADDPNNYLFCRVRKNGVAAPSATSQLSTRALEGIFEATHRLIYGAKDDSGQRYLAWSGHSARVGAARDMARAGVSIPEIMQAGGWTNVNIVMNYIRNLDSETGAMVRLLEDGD
Description: (§1) To achieve generation of the expression vector from the donor and acceptor, the following were mixed together on ice in a standard eppendorf microcentrifuge tube: 0.5 µg pCMVmycloxP (representing the Acceptor vector); 0.5 µg pD3 (representing the Donor vector); 2 µl 10×Cre reaction buffer (10×Cre reaction buffer contains: 500 mM Tris-HCl (pH 7.5) and 300 mM NaCl); 10 mM MgCl_2, 1 µl 20×BSA (20×BSA contains 2 mg/ml BSA (NEB)); 25 Units Cre recombinase (Novagen); H_2O to 20 µl total.
(§2) Once the reagents were mixed, the reaction was incubated for 15 mins at 37° C. Following the reaction, the mixture was heated to 65° C. for 10 mins to inactivate the Cre enzyme. Finally, an aliquot of the reaction mix was transformed to E. coli using standard methods (e.g., electroporation), and the transformed bacteria selected on LB plates containing 60 µg/ml Chloramphenicol.

Cre recombinase [2] = molecular target: T1, Cre recombinase; experiment: same reaction, second donor loxP site; conditions: chain copies: 4 per synapse (inferred); EcoRI and SapI overhangs before cloning; assayed within plasmid
Description: as §1, §2

Cre recombinase [3] = molecular target: T1, Cre recombinase; experiment: acceptor loxP site; same buffer, 37 C 15 min; loxP of this acceptor PCR-transferred to 10 acceptors, 27 of 30 clones correct with pDNR-luc; conditions: chain copies: 4 per synapse (inferred); SfiI and BglII overhangs before cloning; assayed within plasmid

B1: loxP site 1 of donor pD3 (LoxP1-up/down) (dsDNA)
DNA 1: CGCGGCCGCATAACTTCGTATAGCATACATTATACGAAGTTATCAGTCGACG
DNA 2: AATTCGTCGACTGATAACTTCGTATAATGTATGCTATACGAAGTTATGCGGCCGCGACGT
binding result (Cre recombinase [1]): binds

B2: loxP site 2 of donor pD3 (LoxP2-up/down) (dsDNA)
DNA 1: AATTCGGATCCATAACTTCGTATAGCATACATTATACGAAGTTATGCGGCC
DNA 2: AGCGGCCGCATAACTTCGTATAATGTATGCTATACGAAGTTATGGATCCG
binding result (Cre recombinase [2]): binds

B3: loxP site of acceptor pCMVmycloxP (LoxPMyc-up/down) (dsDNA)
DNA 1: AGATAACTTCGTATAGCATACATTATACGAAGTTATA
DNA 2: GATCTATAACTTCGTATAATGTATGCTATACGAAGTTATCTCCA
binding result (Cre recombinase [3]): binds
